Substitutions are numbered along the chain they refer to.
T1: oligopeptide ATYPSGHLDM (SEQ ID NO: 1) (human and mouse)
T1 construct: Synthetic peptide; positions 148 to 157 of the human AQP3 polypeptide, identical in mouse; also called peptide used for immunization; oligopeptide 5
T1 peptide: ATYPSGHLDM

T2: mouse AQP3 in lysate of HEK293T cells overexpressing mouse AQP3 and a myc-biotinylated tag (mouse, UniProt Q8R2N1 1-292)
T2 construct: Cell lysate used in ELISA; also called AQP3 containing cell lysate; not shown: myc-biotinylated tag
T2 sequence (looked up): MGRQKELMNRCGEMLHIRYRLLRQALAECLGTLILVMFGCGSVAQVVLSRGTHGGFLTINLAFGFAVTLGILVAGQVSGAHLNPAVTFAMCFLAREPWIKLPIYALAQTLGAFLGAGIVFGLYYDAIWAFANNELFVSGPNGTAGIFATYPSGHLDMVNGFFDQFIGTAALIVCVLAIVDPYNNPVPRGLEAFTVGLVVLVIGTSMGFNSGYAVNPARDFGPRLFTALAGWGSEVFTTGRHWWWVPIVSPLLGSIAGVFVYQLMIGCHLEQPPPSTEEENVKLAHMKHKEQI

B1: Antibody K (antibody, mouse IgG2a, kappa, V domains shown)
VH: QVQLKQSGAELVRPGTSVKVSCKASGYAFTNYLIEWVKQRPGQGLEWIGVINPGSGGTNYNEKFKGKATLTADKSSSTAYMQLSSLTSEDSAVYFCARWGFYYAMDYWGQGTSVTVSS
VL: DIVMTQSPSSLSASLGERVSLTCRASQEISGYLSWLQQKPDGTIKRLIYAASTLDSGVPKRFSGSRSGSDYSLTISSLESEDFADYYCLQYASYPLTFGAGTKLEIKR
notes: also called anti AQP3 antibody K
B2: Antibody B (antibody, mouse IgG2a, kappa, V domains shown)
VH: EVQLVESGGDLVKPGGSLKLSCAASGFTFSSYGMSWVRQTPDKRLEWVATISRGSIYTYYPDSVKGRFTISRDNAKNTLYLQMSSLKSEDTAMYYCARLSLYDYDGARYTMDYWGQGTSVTVSS
VL: DIVMTQSPKFMSTSVGDRVSITCKASQDVGTAVAWYQQKPGQSPKLLIYWASTRHTGVPDRFTGSGSGTDFTLTISNVQSEDLADYFCQQYSSYHTFGAGTKLELKR
notes: also called anti AQP3 antibody B
B3: Antibody F (antibody, mouse IgG2a, kappa, V domains shown)
VH: QVQLKESGPELVKPGASVKISCKASGYTFTDYYINWVKQRPGQGLEWIGWIFPGSGSTYYNEKFKGKATLTVDKSSSTAYMLLSSLTSEDSAVYFCADYGSSYRYFDVWGAGTTVTVSS
VL: DIVMTQSPAILSASPGEKVTMTCRASSSVSYMHWYQQKPGSSPKPWIYATSYLASGVPARFSGSGSGTSYSLTIGRVEAEDAATYYCQQWSSNPLTFGAGTKLELKR
notes: also called anti AQP3 antibody F; Antiboy F
B4: Antibody A (antibody, mouse IgG2a, kappa, V domains shown)
VH: QVQLQQPGAELVRPGASVTLSCKASGYTFTDYEMHWVKQTPVHGLEWIGGVDPETGGTGYNQKFRGKAILTADKSSSTAYMELRSLTSEDSAVYYCARHGGSFYAMDYWGQGTSVTVSS
VL: DIVMTQSPKFMSTSVGDRVSITCKASQDVSTAVAWYQQKPGQSPKLLIYWASTRHTGVPDRFTGSGSGTDYTLTISSVQAEDLALYYCQQHYSTPPTFGGGTKLELKR
notes: also called anti AQP3 antibody A
B5: BC-A8 (Fab) (Fab, V domains shown)
VH: QTVKESGGRLVTPGAPLTLTCTVSRFSLSSYAMTWVRQAPGKGLEWIGIINNDGSSSTWYASWVKGRFTISKTSTTMDLKMTSLTTEDTATYFCARGGTSGYDIWGPGTLVTVSL
VL: AQGLTQTPSPVSAAVGGTVTINCQSSPSVYKNYLSWYQQKPGQPPKLLIYGASTLASGVPSRFKGSGSGTQFTLTISDVQCDDAATYYCAGGYRGSSDIFAFGGGTEVVVK
B6: SC-D1 (Fab) (Fab, V domains shown)
VH: B5 VH with T2S, V3L, K4E, G7R, A15G, P16S, R25G, S55V
VL: B5 VL with A1D, Q2P, G3M, L4M, D78G
B7: BC-E2 (Fab) (Fab, V domains shown)
VH: QEQLKESGGRLVTPGAPLTLTCTVSRFSLSSYAMTWVRQAPGKGLEWIGIINNDGISSTWYASWVKGRFTISKTSTTMDLKMTSLTTEDTATYFCARGGTSGYDIWGPGTLVTVSL
VL: B5 VL with Q2V, G3V, G51K
B8: BC-A9 (Fab) (Fab, V domains shown)
VH: B5 VH with T2S, K4E, A15G, P16S, S55I, L110V
VL: B5 VL with S9A, P10S, P41S, V59A
B9: SC-D10 (Fab) (Fab, V domains shown)
VH: B5 VH with T2S, A15G, P16S, S55V
VL: B5 VL with Q2L, G3V, L4M, I21T, G51K, K64S
B10: BC-H4 (Fab) (Fab, V domains shown)
VH: B5 VH with T2Q, V3L, S55V, L115S
VL: B5 VL with Q2L, G3V, S97G
B11: SC-C7 (Fab) (Fab, V domains shown)
VH: B5 VH with S30G, G54I, S56G, L115S
VL: B5 VL with A1D, Q2V, G3V, L4M
B12: BC-E3 (Fab) (Fab, V domains shown)
VH: B5 VH with T2S, T12A, A15T, T22A, R25G, S55R, L84P
VL: B5 VL with L4M, Q71R
B13: SC-F6 (Fab) (Fab, V domains shown)
VH: B5 VH with T2S, S55I
VL: B5 VL with L4M, S9A, P10S, P41S
B14: SC-B2 (Fab) (Fab, V domains shown)
VH: B7 VH with K5M, G8R, A16G, P17S, S31N
VL: B5 VL with L4P, S97G
B15: BC-B4 (Fab) (Fab, V domains shown)
VH: B5 VH with T2S, K4E, A15G, P16S, S55I, L110V
VL: B5 VL with Q2L, G3V, P27Q, S97G
B16: BC-E4 (Fab) (Fab, V domains shown)
VH: B5 VH with T2S, T12A, A15T, T22A, R25G, S55R, L84P
VL: B5 VL with L4M, Q71R
B17: BC-A3 (Fab) (Fab, V domains shown)
VH: B5 VH with S55V
VL: B5 VL with G3V, S9A, P10S, G16R, P41S
B18: BC-G6 (Fab) (Fab, V domains shown)
VH: B5 VH with T2S, K4E, A15G, P16S, V23A, R25G, S30G, S55I
VL: B5 VL with Q2L, G3V, L4M
B19: BC-E1 (Fab) (Fab, V domains shown)
VH: B5 VH with T2S, T12A, A15T, T22A, R25G, S55R, L84P
VL: B5 VL with L4M, Q71R
B20: SC-G8 (Fab) (Fab, V domains shown)
VH: B5 VH with T2S, K4E, T12M, A15G, P16S, V23A, R25G, S56G
VL: B5 VL with Q2A, G3V, G51K, S96Y
B21: BC-E11 (Fab) (Fab, V domains shown)
VH: B5 VH with T2S, T12A, A15T, T22A, R25G, S55R, L84P
VL: B5 VL with L4M, Q71R
B22: BC-C8 (Fab) (Fab, V domains shown)
VH: B5 VH with T2S, V3L, K4E, A15G, P16S, S55I, L110V
VL: B5 VL with Q2L, G3V
B23: BC-F2 (Fab) (Fab, V domains shown)
VH: B5 VH with T2S, T12A, A15T, T22A, R25G, S55R, L84P
VL: B5 VL with L4M, Q71R
B24: SC-H10 (Fab) (Fab, V domains shown)
VH: B5 VH with T2S, V3L, K4E, S55I
VL: B5 VL with K64S
B25: BC-F7 (Fab) (Fab, V domains shown)
VH: B5 VH with T2S, K4E, A15G, P16S, S55I, L110V
VL: B5 VL with Q2L, G3V, P27Q, S97G

Molecular target: T1, oligopeptide ATYPSGHLDM (SEQ ID NO: 1)
Assay: ELISA on the immunogen peptide (FIG. 2)

Row | binding result | Binder
1 | binds | B1
2 | binds | B2

molecular target: T2, mouse AQP3 in lysate of HEK293T cells …; assay: ELISA on lysate of HEK293T cells overexpressing mouse AQP3 (FIG. 3)
Description: Cell lysate from HEK293T cells overexpressing mouse AQP3 and a myc-biotinylated tag was used in an ELISA assay to measure the binding of antibodies A, B, C, D, E, F, G, H, J, and K to AQP3. Cell lysate from HEK293T cells overexpressing the myc-biotinylated tag but not AQP3 was used as control. […] C. Antibody binding to AQP3 expressing cells

Row | binding result | Binder
3 | binds | B3
4 | binds | B1
5 | binds | B2
6 | binds | B4

Molecular target: T1, oligopeptide ATYPSGHLDM (SEQ ID NO: 1)
Assay: ELISA on peptide, Fab

Row | binding result | Binder
7 | binds | B5
8 | binds | B6
9 | binds | B7
10 | binds | B8
11 | binds | B9
12 | binds | B10
13 | binds | B11
14 | binds | B12
15 | binds | B13
16 | binds | B14
17 | binds | B15
18 | binds | B16
19 | binds | B17
20 | binds | B18
21 | binds | B19
22 | binds | B20
23 | binds | B21
24 | binds | B22
25 | binds | B23
26 | binds | B24
27 | binds | B25

Reference: patent publication US20220298237A1 (KEIO UNIVERSITY, published 2022)
